Consider one substance from patent publication US12616711B2, “Therapeutic dendrimer” (Starpharma Pty Ltd, priority 2019, dated 2026).

For one data set, the system named is CAPAN-1 cells. Kind of data set: alamarBlue viability assay, GI50. It is filed as cell-based, human. The conditions noted are these: 144 h, given in μM Gemcitabine. On the procedure: (§1) A study was carried out to determine the ability of example dendrimers to inhibit growth of cancer cell lines using an alamarBlue viability assay (Thermo Fisher, DAL1025).
(§2) The cytotoxicity of compounds toward MDA-MB-231, A549, H460, BxPC3 and CAPAN-1 cells were evaluated for viability. Cells were seeded at a density of 1.2-5×10^3 cells, dependent on cell growth rate, in 96 well plates and incubated overnight. Cells were then treated with serial dilutions of test compositions for 72 h (MDA-MB-231, A549 and H460 lines) or 144 h (BxPC3 and CAPAN-1 lines). For cell viability analysis, 10% media volume of alamar Blue was added during the final 6-8 h of incubation. Reduction of alamarBlue in living cells yields a red fluorescent metabolite that can be read on a plate reader (560 nm excitation/610 nm emission.). Cell viability and subsequent GI50 values were was determined from the blank corrected dose-response curves, with 4-parameter nonlinear curve fit, in GraphPad Prism.

In another data set the test system is A549 cells. Kind of data set: alamarBlue viability assay, GI50. It is filed as cell-based, human. The conditions noted are these: 72 h, given in μM Gemcitabine. On the procedure: as §1, §2
The nature of data set [1]: Gemcitabine release from dendrimers in citrate buffer. It is filed as physicochemical. The conditions noted are these: Citrate Buffer pH 4.5, 37° C. On the procedure: A study was carried out to determine the rate of gemcitabine release from dendrimer compounds in PBS and citrate buffer. Gemcitabine-conjugated dendrimers of the present disclosure, and a comparative example dendrimer, were each dissolved in PBS Buffer (2 mL, 10 mM, pH 7.4) or Citrate Buffer (2 mL, 0.1 M, pH 4.5) and held at 37° C. Samples were then analysed by injecting 5 μL of the solution on HPLC. At various time points, samples were analysed by HPLC. HPLC (C8 XBridge, 3×100 mm), gradient: 5% ACN/H2O (0-1 min), 5-80% ACN (1-7 min), 80% ACN (7-12 min), 80-5% ACN (12-13 min), 5% ACN (13-15 min), 243 nm, 10 mM ammonium formate buffer, 0.4 mL/min.

The test system of a further data set is A549 tumour xenografts. Kind of data set: A549 lung adenocarcinoma mouse xenograft (Example 15). The data set is classed as in vivo. The conditions noted are these: 3 at 6 mg/kg weekly, Gemcitabine 120 mg/kg twice weekly, 3 weeks i.v. On the procedure:
A A549 (human adenocarcinomic human alveolar basal epithelial) cell line was used to assess the anti-tumour efficacy properties of 3. NSG mice were inoculated and tumours sized as described above. On day 30 after implantation, mice with similar sized tumours (mean tumour volume 100 mm^3) were randomised into four groups of 10 animals for each tumour type. Gemcitabine and 3 were prepared as described above.
Gemcitabine was administered twice weekly and dendrimer was administered weekly for 3 weeks via tail vein i.v. injection, at 0.1 ml/10 g body weight.

With “[BHA Lys][Lys]30[Lys]32 [Compound 3, [BHA Lys][Lys]30[Lys]32 [(α-NH-TDA-Gemcitabine)32 (ε-NHPEG˜2100)32]]”, the results for the GI50 in the data set with CAPAN-1 cells and with A549 cells were 0.008 µM and 0.05 µM, respectively. In addition, the “% Gemcitabine released in citrate buffer” value was determined as 0% in data set [1] (0 h); 4.42% in data set [1] (0.08 h); 5.21% in data set [1] (2 h); 5.51% in data set [1] (4 h); 4.92% in data set [1] (6 h); 5.61% in data set [1] (8 h). In addition, the “% Gemcitabine released in citrate buffer” value in data set [1] (10 h) was found to be 5.39%; in data set [1] (12 h) it was 5.94%; in data set [1] (24 h) it was 7.53%; in data set [1] (26 h) it was 7.52%; in data set [1] (28 h), 7.75%; in data set [1] (30 h) it was 7.71%. Also, the entries for the “% Gemcitabine released in citrate buffer” value in data set [1] (32 h), in data set [1] (34 h) and in data set [1] (36 h) were 7.48%, 7.72% and 8.19%, respectively. Moreover, in the data set with A549 tumour xenografts, the “anti-tumour efficacy compared to Gemcitabine (FIG. 8)” value was “more effective than Gemcitabine”.
